Here are results for 35 molecules from patent US20260132183A1 (ACADEMISCH ZIEKENHUIS LEIDEN H O D N LUMC, published 2026).

The chains are these.
T1: MAGE-A6 peptide on HLA-B*35:01 (human)
T1 peptide: EVDPIGHVY

T2: MAGE-A1 peptide on HLA-C*07:02 (human)
T2 peptide: VRFFFPSL

T3: MAGE-A1 peptide on HLA-A*03:01 (human)
T3 peptide: SLFRAVITK

T4: MAGE-A3 peptide on HLA-B*35:01 (human)
T4 peptide: EVDPIGHLY

T5: MAGE-A9 peptide on HLA-A*01:01 (human)
T5 peptide: YVGKEHMFY

T6: MAGE-A1 peptide on HLA-B*07:02 (human)
T6 peptide: RVRFFFPSL

T7: MAGE-A1 peptide on HLA-A*02:01 (human)
T7 peptide: KVLEYVIKV

B1: TCR CT23.2H9 (TCR, V domains shown)
Valpha: KDQVFQPSTVASSEGAVVEIFCNHSVSNAYNFFWYLHFPGCAPRLLVKGSKPSQQGRYNMTYERFSSSLLILQVREADAAVYYCAVPNNYGQNFVFGPGTRLSVLP
Vbeta: NAGVTQTPKFRILKIGQSMTLQCTQDMNHNYMYWYRQDPGMGLKLIYYSVGAGITDKGEVPNGYNVSRSTTEDFPLRLELAAPSQTSVYFCASSYSGQGLYEQYFGPGTRLTVT
B2: TCR CT31.10C1 (TCR, V domains shown)
Valpha: DQQVKQNSPSLSVQEGRISILNCDYTNSMFDYFLWYKKYPAEGPTFLISISSIKDKNEDGRFTVFLNKSAKHLSLHIVPSQPGDSAVYFCAASAQNNDMRFGAGTRLTVKP
Vbeta: DAGVIQSPRHEVTEMGQEVTLRCKPISGHDYLFWYRQTMMRGLELLIYFNNNVPIDDSGMPEDRFSAKMPNASFSTLKIQPSEPRDSAVYFCASGTGWDTEAFFGQGTRLTVV
B3: TCR CT23.3H4 (TCR, V domains shown)
Valpha: RKEVEQDPGPFNVPEGATVAFNCTYSNSASQSFFWYRQDCRKEPKLLMSVYSSGNEDGRFTAQLNRASQYISLLIRDSKLSDSATYLCVVNFNYGQNFVFGPGTRLSVLP
Vbeta: DTGVSQDPRHKITKRGQNVTFRCDPISEHNRLYWYRQTLGQGPEFLTYFQNEAQLEKSRLLSDRFSAERPKGSFSTLEIQRTEQGDSAMYLCASSPLGVNTEAFFGQGTRLTVV
B4: TCR CT43.2D8 (TCR, V domains shown)
Valpha: EDKVVQSPLSLVVHEGDTVTLNCSYEVTNFRSLLWYKQEKKAPTFLFMLTSSGIEKKSGRLSSILDKKELSSILNITATQTGDSAIYLCAVEGWDDKIIFGKGTRLHILP
Vbeta: DAGITQSPRHKVTETGTPVTLRCHQTENHRYMYWYRQDPGHGLRLIHYSYGVKDTDKGEVSDGYSVSRSKTEDFLLTLESATSSQTSVYFCAISEGRNEQYFGPGTRLTVT
B5: TCR CT12.3G2 (TCR, V domains shown)
Valpha: AQKVTQAQTEISVVEKEDVTLDCVYETRDTTYYLFWYKQPPSGELVFLIRRNSFDEQNEISGRYSWNFQKSTSSFNFTITASQVVDSAVYFCALSEAYSGAGSYQLTFGKGTKLSVIP
Vbeta: EPEVTQTPSHQVTQMGQEVILRCVPISNHLYFYWYRQILGQKVEFLVSFYNNEISEKSEIFDDQFSVERPDGSNFTLKIRSTKLEDSAMYFCASSEALQPQHFGDGTRLSIL
B6: TCR CT27.4F7 (TCR, V domains shown)
Valpha: GEDVEQSLFLSVREGDSSVINCTYTDSSSTYLYWYKQEPGAGLQLLTYIFSNMDMKQDQRLTVLLNKKDKHLSLRIADTQTGDSAIYFCAESIDARLMFGDGTQLVVKP
Vbeta: DSGVTQTPKHLITATGQRVTLRCSPRSGDLSVYWYQQSLDQGLQFLIQYYNGEERAKGNILERFSAQQFPDLHSELNLSSLELGDSALYFCASSPGGDTQYFGPGTRLTVL

One assay deals with T1, MAGE-A6 peptide on HLA-B*35:01. Nature of the assay: cytokine release.
For B1, the binding result is “recognises”.

For a further assay, the target named is T8, HLA-C*07:02 with beta-2 microglobulin (human).
T8 construct: also called HLA-C7; C702
Briefly: pHLA monomer refolding.
Turning to VRFFFPSL (synthetic peptide) [VRFFFPSL (MAGE-A1 peptide)], the binding result is given as “binds”.

The target in the next assay is T9, HLA-A*03:01 with beta-2 microglobulin (human).
T9 construct: also called HLA-A3
Briefly: pHLA monomer refolding.
In the case of RVRFFFPSLR (synthetic peptide) [RVRFFFPSLR (MAGE-A1 peptide)], the binding result was “binds”.
Consider ATLPPFMCNK (synthetic peptide) [ATLPPFMCNK (SSX2 peptide)], for which the binding result was “binds”.
Consider SVMGVYVGK (synthetic peptide) [SVMGVYVGK (MAGE-A9 peptide)], for which the binding result is “binds”.
For the molecule RIFPKIMPK (synthetic peptide) [RIFPKIMPK (SSX4 peptide)], the binding result is “binds”.
RVRIAYPSLR (synthetic peptide) [RVRIAYPSLR (MAGE-A4 peptide)]: the binding result is on record as “binds”.
On to IVLGVILTK (synthetic peptide) [IVLGVILTK (MAGE-A9 peptide)], for which the binding result is given as “binds”.
With SMLGDGHSMPK (synthetic peptide) [SMLGDGHSMPK (MAGE-A9 peptide)], the binding result is recorded as “binds”.
Regarding RCFPVIFGK (synthetic peptide) [RCFPVIFGK (MAGE-A4 peptide)], the binding result was “binds”.

Another assay deals with T10, HLA-B*07:02 with beta-2 microglobulin (human).
T10 construct: also called HLA-B7
Briefly: pHLA monomer refolding.
Take RPADLTRVIM (synthetic peptide) [RPADLTRVIM (MAGE-A11 peptide)]: the binding result is reported as “binds”.
Still for that read-out and setting: to FPSLREAAL (synthetic peptide) [FPSLREAAL (MAGE-A1 peptide)] belongs “binds”; to YPSLREAAL (synthetic peptide) [YPSLREAAL (MAGE-A4 peptide)], “binds”; to RVRFFFPSL (synthetic peptide) [RVRFFFPSL (MAGE-A1 peptide)], “binds”.
RVRIAYPSL (synthetic peptide) [RVRIAYPSL (MAGE-A4 peptide)]: the binding result is on record as “binds”.

The target in a further assay is T11, HLA-A*02:01 with beta-2 microglobulin (human).
T11 construct: also called HLA-A2
Briefly: pHLA monomer refolding.
With GVYAGREHFV (synthetic peptide) [GVYAGREHFV (MAGE-C2 peptide)], the binding result is “binds”.
Turning to VIWEVLNAV (synthetic peptide) [VIWEVLNAV (MAGE-C2 peptide)], the binding result is given as “binds”.
Turning to GVYDGREHTV (synthetic peptide) [GVYDGREHTV (MAGE-A4 peptide)], the binding result is “binds”.
Take VLGEEQEGV (synthetic peptide) [VLGEEQEGV (MAGE-A9 peptide)]: the binding result is recorded as “binds”.
Consider KVLEYVIKV (synthetic peptide) [KVLEYVIKV (MAGE-A1 peptide)], for which the binding result is “binds”.
Turning to KVLEFLAKL (synthetic peptide) [KVLEFLAKL (MAGE-C2 peptide)], the binding result was “binds”.
In the case of KIWEELSVLEV (synthetic peptide) [KIWEELSVLEV (MAGE-A3/A6 peptide)], the binding result is “binds”.
With ALREEEEGV (synthetic peptide) [ALREEEEGV (MAGE-A1 peptide)], the binding result is given as “binds”.
As to ALKDVEERV (synthetic peptide) [ALKDVEERV (MAGE-C2 peptide)], the binding result was “binds”.
Consider FVYGEPREL (synthetic peptide) [FVYGEPREL (MAGE-C2 peptide)], for which the binding result was “binds”.
As for KASEKIFYV (synthetic peptide) [KASEKIFYV (SSX2 peptide)], the binding result is listed as “binds”.
Regarding TLDEKVAEL (synthetic peptide) [TLDEKVAEL (MAGE-C2 peptide)], the binding result is reported as “binds”.
Same read-out and setting: to ALIEVGPDHFC (synthetic peptide) [ALIEVGPDHFC (MAGE-C2 peptide)] belongs “binds”.

Another assay addresses T12, HLA-A*01:01 with beta-2 microglobulin (human).
T12 construct: also called HLA-A1
Nature of the assay: pHLA monomer refolding.
In the case of YVGKEHMFY (synthetic peptide) [YVGKEHMFY (MAGE-A9 peptide)], the binding result was “binds”.
For the molecule LTQDLVQEKYLEY (synthetic peptide) [LTQDLVQEKYLEY (MAGE-A1 peptide)], the binding result is reported as “binds”.

In a further assay the target is T2, MAGE-A1 peptide on HLA-C*07:02. Briefly: multimer staining.
As to B2, the binding result is given as “recognises”.

The target in a further assay is T3, MAGE-A1 peptide on HLA-A*03:01. Nature of the assay: multimer staining.
For the molecule B3, the binding result is given as “recognises”.

Another assay concerns the target T4, MAGE-A3 peptide on HLA-B*35:01. Nature of the assay: multimer staining.
For B1, the binding result is “recognises”.

The target of another assay is T5, MAGE-A9 peptide on HLA-A*01:01. Nature of the assay: multimer staining.
For B4, the binding result was “recognises”.

The target in the next assay is T6, MAGE-A1 peptide on HLA-B*07:02. Briefly: multimer staining.
As to B5, the binding result is listed as “recognises”.

The target of the next assay is T7, MAGE-A1 peptide on HLA-A*02:01. Briefly: multimer staining.
On to B6, for which the binding result is “recognises”.
